Earlier results in patent EP4471063A1, “ANTIBODY AGAINST HER3, CONJUGATE AND USE THEREOF” (priority 2022, dated 2023).

How the values were obtained:
[1] = multicenter clinical studies
[2] = once every three weeks, five administrations, 0, 3, 10, 30 mg/kg

Patritumab Deruxtecan
thrombocytopenia as treatment emergent adverse event (TEAE) [1]: 30% | body weight (at all doses): no significant abnormality | toxic target organs (cynomolgus monkey, in vivo): thymus, bone marrow, and skin | dose at which a decrease in reticulocytes, lymphocytes, and platelets was observed [2]: ≥ 3 mg/kg | dose at which transferases increased [2]: ≥ 10 mg/kg
